The source of these data is the nanobody polyreactivity screen of Harvey et al. (2022).

The series can be described thus: yeast display, Sf9 membrane polyspecificity reagent, FACS + sequencing; frameworks hold sequencing errors. The method, boiled down:
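Galactose induction of a Saccharomyces cerevisiae BJ5465 synthetic nanobody display library ran 36–48 hours. The cells were then stained for 1 hour at 4 °C with 10% biotinylated, detergent-solubilized Sf9 membrane reagent, pulled down on streptavidin microbeads and FACS-sorted into low and high (top ~1%) gates on expression and reagent-binding fluorescence. Labels for polyreactivity follow the gate of origin.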
Regarding “QVQLVESGGGLVQAGGSLRLSCAASGSIFVHYAMGWYRQAPGKERELVARISWRGNTYYADSVKGRFTISRDNAKNTVYLQMNSLKPEDTAVYYCAKDVRRSLVIWDVVYPHGYWGQGTQVTVSS”, the “polyreactivity (PSR sort gate)” value is on record as “low polyreactivity”.

On to “QVQLVESGGGLVQAGGSLRLSCAASGSIFVIYAMGWYRQAPGKERELVAAITSGGNTTYADSVKGRFTISRDNAKNTVYLQMNSLKPEDTAVYYCAAYSYYTGDQYSYDYWGQGTQVTVSS”, for which the “polyreactivity (PSR sort gate)” value is “low polyreactivity”.

For “QVQLVESGGGLVQAGGSLRLSCAASGSIFVKYAMGWYRQAPGKERELVAAISGSGGSTYYADSVKGRFTISRDNAKNTVYLQMNSLKPEDTAVYYCAAAYHGRHYYWGQGTQVTVSS”, the “polyreactivity (PSR sort gate)” value is on record as “high polyreactivity”.

Regarding “QVQLVESGGGLVQAGGSLRLSCAASGSIFVLNAMGWYRQAPGKERELVAVISNIGGRTYYADSVKGRFTISRDNAKNTVYLQMNSLKPEDTAVYYCIFRSPSYEYDYWGQGTQVTVSS”, the “polyreactivity (PSR sort gate)” value was “low polyreactivity”.

Regarding “QVQLVESGGGLVQAGGSLRLSCAASGSIFVLNAMGWYRQAPGKEWELVAVISNIGGRTYYADSVKGRFTISRDNAKNTVYLQLNSLKPEDTAVYSCAAPFTSTFDYWGQVTQVTVSS”, the “polyreactivity (PSR sort gate)” value was “low polyreactivity”.

Consider “QVQLVESGGGLVQAGGSLRLSCAASGSIFVLNAMGWYRQAPGQERELVAAITNVGSTYYADSVKGRFTISRDNAKNTVYLQMNSLKPEDTAVYYCAAVLPFKYDYWGQGTQVTVSS”, for which the “polyreactivity (PSR sort gate)” value is “low polyreactivity”.

“QVQLVESGGGLVQAGGSLRLSCAASGSIFVLSAMGWYRQAPGKEREFFAAITWSGDSTYYADSVKGRFTISRDNAKNTVYLQMNSLKPEDTAVYYCAAEGNTWPADFLSYYFEFDEYWGQGTQVTVSS”: the “polyreactivity (PSR sort gate)” value is listed as “low polyreactivity”.

For “QVQLVESGGGLVQAGGSLRLSCAASGSIFVLYAMGWYRQAPGKERELVAAITSAGSTYYADSVKGRFTISRDNAKNTVYLQMNSLKPEDTAVYYCAARRGASQRRYNYWGQGTQVTVSS”, the “polyreactivity (PSR sort gate)” value is listed as “high polyreactivity”.

For “QVQLVESGGGLVQAGGSLRLSCAASGSIFVNNALGWYRQAPGKERELVAAISSRSSRTFYADSVKGRFTISRDNAKNTVYLQMNSLKPEDTAVYYCAVKKRAPDGDYWGQGTQVTVSS”, the “polyreactivity (PSR sort gate)” value is given as “high polyreactivity”.

“QVQLVESGGGLVQAGGSLRLSCAASGSIFVNNAMGWYRQAPGKERELVAAIRRGSSTNYADSVKGRFTISRDNAKNTVYLQMNSLKPEDTAVYDCAADHDDDEAQNYDYLGQGTQVTVSS”: the “polyreactivity (PSR sort gate)” value is “low polyreactivity”.

Regarding “QVQLVESGGGLVQAGGSLRLSCAASGSIFVNNAMGWYRQAPGKERELVAAISSRGGSTYYADSVKGRFTISRDNAKNTVYLQMNSLKPEDTAVYYCAAEYDGPYYSFYPEQRYYWGLGTQVTVSS”, the “polyreactivity (PSR sort gate)” value is given as “low polyreactivity”.

Take “QVQLVESGGGLVQAGGSLRLSCAASGSIFVNYAIGWYRQAPGKERELVAAISRSGGRTYYADSVKGRFTISRDNAMNSVYLQMNSLKPEDTAVYYCNVYPVLRTIEGDYWGQGTQVTVSS”: the “polyreactivity (PSR sort gate)” value is on record as “high polyreactivity”.

With “QVQLVESGGGLVQAGGSLRLSCAASGSIFVPNAMGWYRQAPGKERELVAAITSGGSTYYADSVKGRFTISRDNAKNTVYLQMNSLKPEDTAVYYCAAEYWLGLYTYDYWGQGTQVTVSS”, the “polyreactivity (PSR sort gate)” value is recorded as “high polyreactivity”.

On to “QVQLVESGGGLVQAGGSLRLSCAASGSIFVPYAMGWYRQAPGKERELVAAISYRGGNTYYADSVKGRFTISRDKAKNTVSLQMNSLKPEDTAVYYCNAGVSIGRSRRDDYWGQGTQVTVSS”, for which the “polyreactivity (PSR sort gate)” value is “low polyreactivity”.

As to “QVQLVESGGGLVQAGGSLRLSCAASGSIFVQNAMGWYRQAPGKERELVAAINSGGSTYYADSVKGRFTISRDNANNTVYLQMNSLKPEDTAVYYCAADHNYYAYSYYYWGQGTQVTVSS”, the “polyreactivity (PSR sort gate)” value is recorded as “low polyreactivity”.

With “QVQLVESGGGLVQAGGSLRLSCAASGSIFVRNAMGWYRQAPGKERELVAAITSDVNTYYADSVKGRFTISRDNGKNTVYLQMNSLKPEDTAVYYCAKGVTSQPNDPAPFPRYEYWGQGTQVTVSS”, the “polyreactivity (PSR sort gate)” value is “low polyreactivity”.

For “QVQLVESGGGLVQAGGSLRLSCAASGSIFVRNTMGWYRQAPGKERELVASIDWSGGITYYADSVKGRFTISRDNAKNTVYLQMNSLKPEDTAVYYCNAVFLYPFNVPTMEYWGQGTQVTVSS”, the “polyreactivity (PSR sort gate)” value was “low polyreactivity”.

Consider “QVQLVESGGGLVQAGGSLRLSCAASGSIFVRNTMGWYRQAPGKERELVATISSGGRTNYADSVKGRFTISRDNAKNTVYLQMNSLKPEDTAVYYCNRPRWYGGSPYYYWGQGTQVTVSS”, for which the “polyreactivity (PSR sort gate)” value is reported as “high polyreactivity”.

“QVQLVESGGGLVQAGGSLRLSCAASGSIFVRNTMGWYRQAPGKERELVATISSGGRTYYADSVKGRFTISRDNAKNTVYLQMNSLKPEDTAVYYCAAGYSYAQYSYPFLSFAFGYWGQGTQVTVSS”: the “polyreactivity (PSR sort gate)” value is listed as “high polyreactivity”.

For the sequence “QVQLVESGGGLVQAGGSLRLSCAASGSIFVRNVMGLYRQAPGKERELVATIRYRGGSTYYADSVKGRFSISRDNAKNTVYLQMNSLKPEDTAVYYCNARYLWADEYYYWGQGTQVTVSS”, the “polyreactivity (PSR sort gate)” value is “low polyreactivity”.

On to “QVQLVESGGGLVQAGGSLRLSCAASGSIFVRYAMGWYRQAPGKERELVAAFTSSAGSTYYADSVKGRFTISRDNAKNTVYLQMNSLKPEDTAVYYCAAVRYYPSKFYYWGQGTQVTVSS”, for which the “polyreactivity (PSR sort gate)” value is “high polyreactivity”.

For the sequence “QVQLVESGGGLVQAGGSLRLSCAASGSIFVSNAMGWYRQAPGKERELVAAISYSTSRTYYADSVKGRFTISRDNAKNTVYLQMNSLKPEDTAVYYCAVRVRVADGRSNYWGQGTQVTVSS”, the “polyreactivity (PSR sort gate)” value is listed as “high polyreactivity”.

As to “QVQLVESGGGLVQAGGSLRLSCAASGSIFVTNAMGWYRQAPGKEREWVAAISVSGGSTYYADSVKGRFTISRDNAKNTVYLQMNSLKPEDTAVYYCAAPGRLFSLYDYWGQGTQVTVSS”, the “polyreactivity (PSR sort gate)” value is on record as “low polyreactivity”.

Regarding “QVQLVESGGGLVQAGGSLRLSCAASGSIFVTYAMGWYRQAPGKERELVAVITWGGGSTYYADSVKGRFTISRDNAKNTVYLQMNSLKQEDTAVYYCAKDAFFTEIAIRDHIISHHYYWGQGTQVTVSS”, the “polyreactivity (PSR sort gate)” value is reported as “low polyreactivity”.

“QVQLVESGGGLVQAGGSLRLSCAASGSIFVTYGMGWYRQAPGKERELVARITTSGGSTYYADSVKGRFTISRDNAKNTVYLQMNSLKQEDTAVYYCNVRFAWGWTYWRYDYWGQGTQVTVSS”: the “polyreactivity (PSR sort gate)” value was “high polyreactivity”.

Take “QVQLVESGGGLVQAGGSLRLSCAASGSIFVVNAMGWYRQAPGKERELVAGISFRGGTTYYADSVKGRFTISRDNAMNTVYLQMNSLKPEDTAVYYCNAVYTSNRNEYDYWGQGTQVTVSS”: the “polyreactivity (PSR sort gate)” value was “low polyreactivity”.

For the sequence “QVQLVESGGGLVQAGGSLRLSCAASGSIFVVYAMGWYRQAPGKERELVAGISDGDNTNYADSVKGRFTISRDNAKNTVYLQMNSLKPEDTAVYYCNADGTSRNLEGFDYWGQGTQVTVSS”, the “polyreactivity (PSR sort gate)” value is “low polyreactivity”.

On to “QVQLVESGGGLVQAGGSLRLSCAASGSIFVWYAMGWYRQAPGKERELVARITSGGRTNYADSVKGRFTISRDNAKNTVYLQMNSLKPEDTAVYDCAAGRVSWSPYYYWGQGTQVNVSS”, for which the “polyreactivity (PSR sort gate)” value is “high polyreactivity”.

For “QVQLVESGGGLVQAGGSLRLSCAASGSIFVWYVMGWYRQAPGKERELVAVISRSGGSTYYADSVKGRFTISRDNAKNTVYLQMNSLKPEDTAVYYCAADSRSYYRDVDYWGQGTQVTVSS”, the “polyreactivity (PSR sort gate)” value is “low polyreactivity”.

Consider “QVQLVESGGGLVQAGGSLRLSCAASGSIFVYNAMGRYRQAPGKERELVAAISRSGASTYYADSVKGRFTISRDNAKNTVYLQMNSLKPEDTAVYYCAAEFRQGGYTFGYWGQGTQVTVSS”, for which the “polyreactivity (PSR sort gate)” value is on record as “high polyreactivity”.
